One assay concerns MC5R. As to the kind of experiment: Effect of divalent ions on cAMP accumulation, MC5R. It is filed as cell-based, human. The method, then:
(§1) For assessing the effect of divalent ions on cAMP signaling, HEK293T cells were digested with 0.02% (w/v) EDTA and washed three times with calcium/magnesium-free HBSS buffer. Then the cells were resuspended and stimulated with different concentrations of ligands in Ca^2+-free stimulation buffer (the aforementioned stimulation buffer supplemented with 1 mM EGTA), or with additional 2 mM divalent ions in Ca^2+-free stimulation buffer ([divalent ions] = ~1 mM)[38]. The rest of steps were essentially the same as described above.

Another assay has as its system MC3R. As to the kind of experiment: Effect of divalent ions on cAMP accumulation, MC3R. It is filed as cell-based, human. How it is done:
as §1

For assay [1], the target named is MC3R mutant L128^3.36A (human) (UniProt P41968).
Assay [2] addresses MC3R mutant L128^3.36V (human) (UniProt P41968).
Assay [3] concerns the target MC5R mutant D115^3.25A (human) (UniProt P33032).
The target in assay [4] is MC5R mutant F118^3.28A (human) (UniProt P33032).
Assay [5] addresses MC5R mutant F254^6.51A (human) (UniProt P33032).
In assay [6] the target is MC5R mutant L99^2.67A (human) (UniProt P33032).
Assay [7] deals with MC5R mutant V126L (human) (UniProt P33032).
The target of assay [8] is MC5R mutant V126^3.36A (human) (UniProt P33032).
Assay [9] concerns the target wild-type MC5R on cells (human) (UniProt P33032).
A further assay concerns MC2R. In words: Effect of divalent ions on cAMP accumulation, MC2R. Format: cell-based. As to conditions: 1 mM Ca^2+ vs divalent ion-free background, HEK293T. The method, then: as §1
A further assay deals with wild-type MC2R on cells (UniProt Q01718).
Assay [10] deals with MC5R mutant F254^6.51A (human) (UniProt P33032). This is another data set of the same source.
Assay [11] has as its target MC5R mutant D115^3.25A (human) (UniProt P33032). The source holds these as a separate data set.
Assay [12] has as its target MC5R mutant D119^3.29A (human) (UniProt P33032).
The target in assay [13] is MC3R mutant D121^3.29A (human) (UniProt P41968).
Assay [14] has as its target MC3R mutant F258^6.51A (human) (UniProt P41968).
Assay [15] concerns the target MC3R mutant F45^1.39A (human) (UniProt P41968).
The target of assay [16] is MC3R mutant H261^6.54A (human) (UniProt P41968).
Assay [17] has as its target MC3R mutant I180^4.61A (human) (UniProt P41968).
Assay [18] concerns the target MC3R mutant I265^6.58M (human) (UniProt P41968).
Assay [19] has as its target MC3R mutant I265^6.58W (human) (UniProt P41968).
For assay [20], the target named is MC3R mutant I265^6.58Y (human) (UniProt P41968).
A further assay concerns the target wild-type MC1R on cells (UniProt Q01726).
Assay [21] addresses wild-type MC3R on cells (human) (UniProt P41968).
Assay [22] concerns the target MC3R mutant F45^1.39A (human) (UniProt P41968). This is another data set of the same source.

Entries after “also recorded” stand apart in the source; their conditions may differ.

Chain of MC5R mutant D115^3.25A (human) (P33032 other isoform, or with tags, fused parts or gaps mutant): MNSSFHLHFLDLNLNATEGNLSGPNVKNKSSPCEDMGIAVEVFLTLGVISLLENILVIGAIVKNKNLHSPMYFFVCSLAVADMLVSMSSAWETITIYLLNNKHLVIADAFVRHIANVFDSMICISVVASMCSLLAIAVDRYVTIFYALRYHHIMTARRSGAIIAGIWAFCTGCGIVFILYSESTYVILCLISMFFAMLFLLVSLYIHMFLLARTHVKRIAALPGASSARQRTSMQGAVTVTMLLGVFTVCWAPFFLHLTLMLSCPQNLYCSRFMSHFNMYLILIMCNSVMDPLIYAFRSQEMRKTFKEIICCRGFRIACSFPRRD
Chain of MC5R mutant F254^6.51A (human) (P33032 other isoform, or with tags, fused parts or gaps mutant): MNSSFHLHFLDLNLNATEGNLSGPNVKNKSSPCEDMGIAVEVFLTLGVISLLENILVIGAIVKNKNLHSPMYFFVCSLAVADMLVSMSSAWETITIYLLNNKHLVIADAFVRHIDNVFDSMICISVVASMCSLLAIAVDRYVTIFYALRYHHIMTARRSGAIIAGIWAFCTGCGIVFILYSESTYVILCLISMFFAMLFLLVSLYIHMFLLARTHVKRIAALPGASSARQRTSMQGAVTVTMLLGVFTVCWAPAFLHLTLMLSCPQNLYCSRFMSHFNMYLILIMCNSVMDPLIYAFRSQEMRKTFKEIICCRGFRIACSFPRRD
Chain of MC3R mutant F45^1.39A (human) (P41968 other isoform, or with tags, fused parts or gaps mutant): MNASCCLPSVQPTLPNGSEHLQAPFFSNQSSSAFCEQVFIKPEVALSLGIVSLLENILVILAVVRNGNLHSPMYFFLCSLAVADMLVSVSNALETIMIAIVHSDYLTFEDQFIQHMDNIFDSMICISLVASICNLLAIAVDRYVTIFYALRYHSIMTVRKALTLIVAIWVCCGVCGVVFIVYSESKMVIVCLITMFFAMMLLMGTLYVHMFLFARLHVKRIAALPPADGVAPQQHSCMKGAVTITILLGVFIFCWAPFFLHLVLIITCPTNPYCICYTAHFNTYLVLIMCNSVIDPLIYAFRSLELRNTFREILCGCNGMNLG
Chain of wild-type MC5R on cells (human) (P33032 whole entry): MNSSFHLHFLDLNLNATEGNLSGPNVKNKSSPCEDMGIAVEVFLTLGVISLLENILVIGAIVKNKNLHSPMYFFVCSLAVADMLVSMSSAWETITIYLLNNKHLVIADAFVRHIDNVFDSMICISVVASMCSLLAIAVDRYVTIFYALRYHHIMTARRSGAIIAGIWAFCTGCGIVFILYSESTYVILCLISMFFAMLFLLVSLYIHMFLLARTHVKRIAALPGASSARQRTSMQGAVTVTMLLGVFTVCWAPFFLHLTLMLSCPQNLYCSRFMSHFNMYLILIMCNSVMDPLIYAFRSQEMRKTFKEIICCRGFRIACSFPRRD
Chain of MC3R mutant L128^3.36A (human) (P41968 other isoform, or with tags, fused parts or gaps mutant): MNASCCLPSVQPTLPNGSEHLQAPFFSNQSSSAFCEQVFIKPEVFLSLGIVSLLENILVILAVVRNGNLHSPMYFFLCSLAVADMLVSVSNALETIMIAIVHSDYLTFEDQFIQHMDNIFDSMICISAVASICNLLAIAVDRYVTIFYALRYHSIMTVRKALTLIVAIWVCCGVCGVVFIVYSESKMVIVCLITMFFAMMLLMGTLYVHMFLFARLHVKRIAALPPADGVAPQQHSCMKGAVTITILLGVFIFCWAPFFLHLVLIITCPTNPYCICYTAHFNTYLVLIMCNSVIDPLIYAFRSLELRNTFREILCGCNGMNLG
Chain of wild-type MC3R on cells (human) (P41968 whole entry): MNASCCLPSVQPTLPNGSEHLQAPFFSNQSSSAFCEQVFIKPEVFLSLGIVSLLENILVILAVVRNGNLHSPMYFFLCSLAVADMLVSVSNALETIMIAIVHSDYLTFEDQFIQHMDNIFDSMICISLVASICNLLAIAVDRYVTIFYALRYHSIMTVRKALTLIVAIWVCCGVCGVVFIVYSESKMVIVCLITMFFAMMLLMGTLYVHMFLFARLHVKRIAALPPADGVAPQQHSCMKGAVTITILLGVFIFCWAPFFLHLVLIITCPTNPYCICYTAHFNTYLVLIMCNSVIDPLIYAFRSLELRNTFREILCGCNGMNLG
Chain of MC3R mutant I180^4.61A (human) (P41968 other isoform, or with tags, fused parts or gaps mutant): as the sequence (P41968 whole entry) above, with I180A counted along it
Chain of MC3R mutant L128^3.36V (human) (P41968 other isoform, or with tags, fused parts or gaps mutant): as the sequence (P41968 whole entry) above, with L128V counted along it
Chain of wild-type MC1R on cells (Q01726 whole entry): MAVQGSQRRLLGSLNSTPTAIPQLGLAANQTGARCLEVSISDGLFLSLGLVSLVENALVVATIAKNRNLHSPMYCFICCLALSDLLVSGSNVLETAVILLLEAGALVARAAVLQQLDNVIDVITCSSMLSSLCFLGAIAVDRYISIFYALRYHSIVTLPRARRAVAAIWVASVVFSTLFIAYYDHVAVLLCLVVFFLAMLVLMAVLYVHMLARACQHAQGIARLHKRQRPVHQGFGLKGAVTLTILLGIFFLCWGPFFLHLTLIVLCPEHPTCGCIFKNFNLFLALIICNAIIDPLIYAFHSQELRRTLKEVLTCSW
Chain of MC3R mutant I265^6.58M (human) (P41968 other isoform, or with tags, fused parts or gaps mutant): as the sequence (P41968 whole entry) above, with I265M counted along it
Chain of MC3R mutant I265^6.58Y (human) (P41968 other isoform, or with tags, fused parts or gaps mutant): as the sequence (P41968 whole entry) above, with I265Y counted along it
Chain of MC5R mutant V126^3.36A (human) (P33032 other isoform, or with tags, fused parts or gaps mutant): as the sequence (P33032 whole entry) above, with V126A counted along it
Chain of MC5R mutant L99^2.67A (human) (P33032 other isoform, or with tags, fused parts or gaps mutant): as the sequence (P33032 whole entry) above, with L99A counted along it
Chain of MC5R mutant D119^3.29A (human) (P33032 other isoform, or with tags, fused parts or gaps mutant): as the sequence (P33032 whole entry) above, with D119A counted along it
Chain of MC5R mutant V126L (human) (P33032 whole entry V126L): as the sequence (P33032 whole entry) above, with V126L counted along it
Chain of MC3R mutant D121^3.29A (human) (P41968 other isoform, or with tags, fused parts or gaps mutant): as the sequence (P41968 whole entry) above, with D121A counted along it
Chain of MC3R mutant H261^6.54A (human) (P41968 other isoform, or with tags, fused parts or gaps mutant): as the sequence (P41968 whole entry) above, with H261A counted along it
Chain of MC5R mutant F118^3.28A (human) (P33032 other isoform, or with tags, fused parts or gaps mutant): as the sequence (P33032 whole entry) above, with F118A counted along it
Chain of wild-type MC2R on cells (Q01718 whole entry): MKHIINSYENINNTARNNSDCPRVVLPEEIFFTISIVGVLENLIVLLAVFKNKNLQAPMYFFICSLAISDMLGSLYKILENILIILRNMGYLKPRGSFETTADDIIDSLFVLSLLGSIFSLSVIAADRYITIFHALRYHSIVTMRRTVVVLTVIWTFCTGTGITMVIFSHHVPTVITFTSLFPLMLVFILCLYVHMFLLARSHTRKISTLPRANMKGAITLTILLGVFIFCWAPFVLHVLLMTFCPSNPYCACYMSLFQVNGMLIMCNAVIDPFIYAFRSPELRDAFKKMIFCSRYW
Chain of MC3R mutant I265^6.58W (human) (P41968 other isoform, or with tags, fused parts or gaps mutant): as the sequence (P41968 whole entry) above, with I265W counted along it
Chain of MC3R mutant F258^6.51A (human) (P41968 other isoform, or with tags, fused parts or gaps mutant): as the sequence (P41968 whole entry) above, with F258A counted along it

`[Mg+2]` [Mg^2+, magnesium ion]: the “effect of Mg^2+ on Gs signaling” value with MC5R (1 mM Mg^2+) and in the assay on MC3R (1 mM Mg^2+) was “neglectable impact; also recorded: little impact” each time.
Take `[Zn+2]` [Zn^2+, zinc ion]: the “effect of Zn^2+ on ligand-induced cAMP response” value in the assay on MC5R (1 mM Zn^2+, α-MSH or PG-901) is listed as “dramatic reduction of cAMP response; also recorded: inhibited the efficacy”; in the assay with MC3R (1 mM Zn^2+, γ-MSH), “dramatic reduction of cAMP response; also recorded: inhibited the efficacy”.
As for PG-901 (peptide), the PG-901-induced cAMP response, HEK293T cells; EC50 in [1] worked out at 250 nM; in assay [2], 32 nM. The PG-901-induced cAMP accumulation, HEK293T cells; fold reduction against WT in assay [3] worked out at 43 fold; in assay [4], 4 fold; in assay [6] it was 10 fold. In addition, the figures for the PG-901-induced cAMP accumulation, HEK293T cells; fold decrease of potency against WT in assay [5] and in [8] were 44 fold and 8 fold, respectively. The molecule also yielded a PG-901-induced cAMP responses, HEK293T cells; fold reduction against WT in assay [7] of 16 fold. For the same molecule, the PG-901-induced cAMP accumulation, HEK293T cells; fold increase of potency with 1 mM Ca2+ against a divalent ion-free background in [9] stood at 230 fold.
As to “adrenocorticotropic hormone (SYSMEHFRWGKPVGKKRRPVKVYPNGAEDESAEAFPLEF; Corticotropin; UniProt P01189 138-176, looked up) [ACTH]”, the “increase of potency by Ca^2+” value in the assay with MC2R came to 6309 fold.
adrenocorticotropic hormone (peptide) yielded an ACTH-induced cAMP accumulation, HEK293T cells; fold increase of potency with 1 mM Ca2+ against a divalent ion-free background in the assay with wild-type MC2R on cells of 6310 fold.
Regarding α-MSH (peptide), the α-MSH-induced cAMP accumulation, HEK293T cells; fold decrease of potency against WT is greater than 100 fold in assay [10] and 269 fold in assay [11]. The α-MSH-induced cAMP accumulation, HEK293T cells; fold reduction against WT in [12] was found to be 447 fold. Further, in assay [9], the α-MSH-induced cAMP accumulation, HEK293T cells; fold increase of potency with 1 mM Ca2+ against a divalent ion-free background stood at 182 fold.
Regarding γ-MSH (peptide), the γ-MSH-induced cAMP accumulation, HEK293T cells; fold decrease of potency against WT in [13] is 22 fold; in assay [14], 30 fold; in assay [16], 32 fold; in [17] it was 22 fold; in assay [18] it was 3 fold; in [19], 18 fold. In assay [20], this molecule returned a γ-MSH-induced cAMP accumulation, HEK293T cells; fold decrease of potency against WT of 4 fold. This molecule also gave a γ-MSH-induced cAMP accumulation, HEK293T cells; fold reduction of potency against WT in assay [15] of 126 fold. Also, the γ-MSH-induced cAMP accumulation, HEK293T cells; fold increase of potency with 1 mM Ca2+ against a divalent ion-free background stood at 294 fold with wild-type MC1R on cells and 407 fold in assay [21]. In assay [22], the fold reduction of binding affinity against the wild type came out at 48 fold.

The values above are taken from article PMC10390531, “Structural insights into ligand recognition and subtype selectivity of the human melanocortin-3 and melanocortin-5 receptors” (Cell Discovery, 2023).
